Test results taken from patent US20220162334A1 (SHANGHAI HENLIUS BIOTECH, published 2022).
Changes are numbered by the printed parent chain.

Biological target: T1, human CD73 on CD73-expressing human tumor cells (MDA-MB-231, NCI-H292) (human, UniProt P21589 27-549)
T1 construct: whole, on cells; The cell line of each result is named under assay or readout; also called cell surface CD73; surface CD73
T1 sequence (looked up): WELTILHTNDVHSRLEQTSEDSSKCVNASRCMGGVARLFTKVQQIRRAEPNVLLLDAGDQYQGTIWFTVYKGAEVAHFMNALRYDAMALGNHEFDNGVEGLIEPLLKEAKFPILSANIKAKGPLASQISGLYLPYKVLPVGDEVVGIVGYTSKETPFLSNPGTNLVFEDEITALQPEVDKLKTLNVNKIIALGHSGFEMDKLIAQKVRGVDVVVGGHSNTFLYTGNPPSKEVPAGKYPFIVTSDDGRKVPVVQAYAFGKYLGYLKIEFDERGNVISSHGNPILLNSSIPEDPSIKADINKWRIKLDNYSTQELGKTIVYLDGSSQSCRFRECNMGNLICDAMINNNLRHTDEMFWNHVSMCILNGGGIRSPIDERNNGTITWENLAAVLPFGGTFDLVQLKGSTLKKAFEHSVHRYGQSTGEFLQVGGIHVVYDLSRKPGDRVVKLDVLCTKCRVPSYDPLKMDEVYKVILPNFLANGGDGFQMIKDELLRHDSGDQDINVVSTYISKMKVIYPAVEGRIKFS
Assay: flow cytometry on MDA-MB-231 cells, biotin-labeled antibody, streptavidin-FITC (FIG. 5C)
Experimental: The binding of anti-CD73 antibodies to cell surface CD73 were tested by incubating the MDA-MB-231 cells with the serially diluted biotin-labeled anti-CD73 antibodies in FACS buffer (PBS with 2% FBS) at 4° C. for 30 minutes. The cells were washed with FACS buffer and the binding was detected with streptavidin-FITC at 4° C. for 30 minutes. Flow cytometric analyses were performed using the Cytomics FC500 (Beckman Coulter Inc.).
The variable sequences of N1, N2 and N4 were cloned into human wild-type or C219S mutant IgG2 Fc backbone. Different IgG isotypes of N1 (FIG. 5A), N2 (FIG. 5B), N4 (FIG. 5C) were tested the binding to CD73-expressing human MDA-MB-231 cells by flow cytometry. Anti-CD73 ref-1 antibody and HLX01 (anti-CD20) were used as the positive and negative control respectively.

B1: N4 with wtIgG2 isotype (antibody)
heavy: QVQLVQSGAEVKKSGSSVKVSCKASGGTFSSYAISWVRQAPGQGLEWMGGIIPIFGTANYAQKFQGRVTITADESTSIAYMELSSLRSEDTAVYYCASDGAVAAYDAFDIWGQGTMVTVSSASTKGPSVFPLAPCSRSTSESTAALGCLVKDYFPEPVTVSWNSGALTSGVHTFPAVLQSSGLYSLSSVVTVPSSNFGTQTYTCNVDHKPSNTKVDKTVERKCCVECPPCPAPPVAGPSVFLFPPKPKDTLMISRTPEVTCVVVDVSHEDPEVQFNWYVDGVEVHNAKTKPREEQFNSTFRVVSVLTVVHQDWLNGKEYKCKVSNKGLPAPIEKTISKTKGQPREPQVYTLPPSREEMTKNQVSLTCLVKGFYPSDIAVEWESNGQPENNYKTTPPMLDSDGSFFLYSKLTVDKSRWQQGNVFSCSVMHEALHNHYTQKSLSLSPGK
light: QAVLTQPSSVSGAPGQRVTISCTGTSSNIGAGYDIHWYQQLPGTAPKLLMYRFTRRPSGVPDRFSGSKSGTSASLTITGLQVEDEADYYCQSYDSGLRGWVFGGGTKLAVLGQPKAAPSVTLFPPSSEELQANKATLVCLISDFYPGAVTVAWKADSSPVKAGVETTTPSKQSNSKYAASSYLSLTPEQWKSHRSYSCQVTHEGSTVEKTVALTECS
notes: also called N4-wtIgG2; N4 clone, wtIgG2 isotype
binding result: binds

B2: N4 with mtIgG2 isotype (antibody)
heavy: B1 heavy with C223S
light: B1 light
notes: also called N4-mtIgG2; N4 clone, mtIgG2 isotype
binding result: binds
